Data published in patent US9505841B2, “Use of an anti-Ang2 antibody” (Samsung Electronics Co., Ltd., priority 2013, dated 2016).

Experiments:
Ang2-Tie2 binding = biological target: T1, Ang2-Tie2 binding (Homo sapiens, UniProt O15123); assay: Ang2-Tie2 binding competition ELISA; conditions: antibody 400 nM to 0.001 nM; 400 ng/ml FLAG-tagged hAng2; hTie2-Fc coated plate
T1 construct: purchased R&D Systems (hTie2-Fc)
T1 sequence (O15123 19-496): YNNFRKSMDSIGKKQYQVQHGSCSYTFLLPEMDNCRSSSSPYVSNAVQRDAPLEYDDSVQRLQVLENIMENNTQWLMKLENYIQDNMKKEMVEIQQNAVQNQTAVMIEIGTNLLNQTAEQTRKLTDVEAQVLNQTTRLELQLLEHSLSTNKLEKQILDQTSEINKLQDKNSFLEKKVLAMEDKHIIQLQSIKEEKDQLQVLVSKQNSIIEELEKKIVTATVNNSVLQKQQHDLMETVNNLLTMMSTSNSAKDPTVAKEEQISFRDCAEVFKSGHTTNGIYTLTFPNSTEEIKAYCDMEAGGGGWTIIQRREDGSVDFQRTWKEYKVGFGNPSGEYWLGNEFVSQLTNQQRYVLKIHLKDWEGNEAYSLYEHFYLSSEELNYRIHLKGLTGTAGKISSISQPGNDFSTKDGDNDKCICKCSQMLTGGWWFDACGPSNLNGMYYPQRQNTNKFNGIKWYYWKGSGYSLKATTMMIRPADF
Experimental: Ang2-Tie2 binding competition ELISA was conducted using the antibody binding to Ang2 prepared in Example 2-1 above.
More specifically, MaxiSorp™ flat-bottom plate (Nunc) of 96-well was coated with hTie2-Fc (R&D Systems) which is a protein bound with 4 ug (microgram)/ml of Fc of human IgG1. After that, the plate was washed five times with 0.05% (v/v) Tween-20-containing PBS (phosphate buffer saline) and then blocked with 1% (v/v) BSA (bovine serum albumin; Sigma)-containing PBS at a room temperature for 2 hour.
For Ang2:Tie2 competition ELISA, each anti-Ang2 antibody obtained in Example 2 was placed at various concentrations of 400 nM to 0.001 nM into each well coated with the hTie-2/Fc fusion protein along with 1% (v/v) BSA and 400 ng/ml of a FLAG-tagged hAng2 and then, the plate was allowed to react at a room temperature for 2 hours and washed five times with PBST. […] Lastly, 100 ul (microliter) of TMB substrate (Cell Signaling) was added to each well of the plate to induce color development for 3 min. and then, the reaction was ceased by the addition of 100 ul of Stop solution (Cell Signaling) and OD450 values were measured on a plate reader (Molecular Devices). […]

LLC tumor = assay: Co-administration of anti-Ang2 antibody and cisplatin in LLC lung cancer animal model; assay type: in vivo, mouse; conditions: LLC mice; antibody 10 mg/kg i.p. every three days, five times; cisplatin 3 mg/kg i.p. once; control Fc of IgG1
Experimental: The synergistic effect of co-treatment of antibody 10D6 and cisplatin was examined.
In particular, referring to Example 14, LLC tumor cells were subcutaneously injected into mice. When the size of tumors reached 50˜100 mm^3, anti-Ang2 antibody 10D6 was injected at the concentration of 10 mg/kg via an intraperitoneal injection every three days a total of five times. After administering antibody 10D6 twice, 3 mg/kg of cisplatin (Sigma-Aldrich) was intraperitoneally injected once. The size of tumor (V) was calculated using the following formula: Volume (V)=(width)2×length/2
For comparison, the same experiment was performed to a control group treated with Fc of IgG1 and a comparative group treated with antibody 4H10.
In addition, an experiment was performed to examine whether the synergistic effect obtained by co-administration of 10D6 and cisplatin as described above is due to the increased transporting efficiency of the administered cisplatin induced by the vascular normalization by treatment of 10D6. Cisplatin binds to DNA in a living body and induces crosslinking, thereby inducing cell death. Rat monoclonal anti-Cisplatin modified DNA (CP9/19) antibody (1:200, Abcam), which is capable of binding to DNA modified by cisplatin in tumor frozen sections, and hamster anti-CD31 antibody (1:200, Millipore), were used for immunofluorescence staining, and fluorescence images were obtained using LSM5 confocal microscope (Zeiss). In addition, to examine necrotic region, the tumor frozen sections were stained with H&E according to standard protocol, and then, Eosin+ cell region in tumor was observed. The obtained results are illustrated in FIG. 18C.

[1] = system: LLC (Lewis Lung Carcinoma); assay: LLC tumor growth model; assay type: in vivo, mouse; conditions: LLC in C57BL/6 mice; 10 mg/kg intraperitoneal three times a week; control Fc of IgG1
Experimental: To see the tumor growth inhibitory effects of Ang2 antibody, a […] Xenograft model using a LLC (Lewis Lung Carcinoma) was employed.
LLC cells (ATCC) were cultured using 10% FBS (Gibco)-supplemented DMEM (Gibco) media. 1×10^6 of LLC cells were re-suspended in 100 ul of PBS (Gibco) and then subcutaneously injected into 6˜8-week-old C57BL/6 mice (Jackson Laboratory) anesthetized with 1˜2% isoflurane.
When the size of tumors reached 50˜100 mm^3, anti-Ang2 antibody (10D6) was injected at the concentration of 10 mg/kg via an intraperitoneal injection three times a week and the size of the tumors was measured.
The size of tumor (V) was calculated using the following formula: Volume (V)=(width)2×length/2
For comparison, the same experiment was performed to a control group treated with Fc of IgG1 and a comparative group treated with antibody 4H10 (refer to Example 3).

inhibition of Ang2-Tie2 binding (Ang2-Tie2 binding): inhibiting Ang2-Tie2 binding
B1: 4H10: anti-Ang2 antibody inhibiting Ang2-Tie2 binding; heavy chain variable region SEQ ID NO: 12, light chain variable region SEQ ID NO: 13 (antibody, V domains shown)
VH: EVQLLESGGGLVQPGGSLRLSCAASGFTFSSYDMSWVRQAPGKGLEWVSLISPDSSSIYYADSVKGRFTISRDNSKNTLYLQMNSLRAEDTAVYYCAKDLISFWRGGFDYWGQGTLVTVSS
VL: QSVLTQPPSASGTPGQRVTISCSGSSSNIGSNYVNWYQQLPGTAPKLLIYADSNRPSGVPDRFSGSKSGTSASLAISGLRSEDEADYYCGSWDYSLSGYVFGGGTKLTVLG
modifications: Synthetic (heavy chain variable region of 4H10); Synthetic (light chain variable region of 4H10)
tumor size decreased by, compared to the control (LLC tumor): 29.2%
inhibition of growth of the tumor compared to the control group [1]: about 27%
